Assay results reported in article PMC9352346 (2022).

B1: Arl15-AL-Myc [human] / GST-Smad4 [not stated] (parent complex)
chain 1: MSDLRITEAFLYMDYLCFRALCCKGPPPARPEYDLVCIGLTGSGKTSLLSKLCSESPDNVVSTTGFSIKAVPFQNAILNVKELGGLDNIRKYWSRYYQGSQGVIFVLDSASSEDDLEAARNELHSALQHPQLCTLPFLILANHQDKPAARSVQEIKKYFELEPLARGKRWILQPCSLDDMDALKDSFSQLINLLEEKDHEAVRM
chain 2: MDNMSITNTPTSNDACLSIVHSLMCHRQGGESETFAKRAIESLVKKLKEKKDELDSLITAITTNGAHPSKCVTIQRTLDGRLQVAGRKGFPHVIYARLWRWPDLHKNELKHVKYCQYAFDLKCDSVCVNPYHYERVVSPGIDLSGLTLQSNAPSSMMVKDEYVHDFEGQPSLSTEGHSIQTIQHPPSNRASTETYSTPALLAPSESNATSTANFPNIPVASTSQPASILGGSHSEGLLQIASGPQPGQQQNGFTGQPATYHHNSTTTWTGSRTAPYTPNLPHHQNGHLQHHPPMPPHPGHYWPVHNELAFQPPISNHPAPEYWCSIAYFEMDVQVGETFKVPSSCPIVTVDGYVDPSGGDRFCLGQLSNVHRTEAIERARLHIGKGVQLECKGEGDVWVRCLSDHAVFVQSYYLDREAGRAPGDAVHKIYPSAYIKVFDLRQCHRQMQQQAATAQAAAAAQAAAVAGNIPGPGSVGGIAPAISLSAAAGIGVDDLRRLCILRMSFVKGWGPDYPRQSIKETPCWIEIHLHRALQLLDEVLHTMPIADPQPLD
B2: GFP-Smad4-WT [not stated] / GST-Arl15-AL [human] (parent complex)
chain 1: B1 chain 2
chain 2: B1 chain 1

Variants of: B1
Assay: GST pull-down, immunoblot band quantification; HeLa cell lysates; bead-immobilized GST-Smad4; parent: 100

First: chain 1 D58N
Second: chain 1 R150H
The percent of parent of the first is higher: 93 for the first, 87 for the second.

Variants of: B2
Assay: GST pull-down, immunoblot band quantification; HEK293T cell lysates; bead-immobilized GST-Arl15-AL; n=3; parent: 1; read off a plot

Compared with chain 1 A532D, chain 1 R496H is higher in ratio to parent: roughly 0.2 for the first, roughly 1.1 for the second.

Compared with chain 1 E538K, chain 1 M447K is higher in ratio to parent: roughly 0.29 for the first, roughly 1.1 for the second.

Compared with chain 1 R497H, chain 1 D493H is lower in ratio to parent: roughly 1 for the first, roughly 0.9 for the second.

First: chain 1 H541Y
Second: chain 1 L495P
The ratio to parent of the first is lower: roughly 0.37 for the first, roughly 1.3 for the second.
